From patent US20210309732A1 (ELIXIRON IMMUNOTHERAPEUTICS HONG KONG, published 2021)

Biological target: T1, recombinant human GM-CSF (human, UniProt P04141 18-144)
T1 construct: also called rhGM-CSF; CSF2
Assay: ELISA on coated rhGM-CSF, UBA relative to 1D2
Source text: Some of the residues in the CDRs are essential for epitope binding affinity and/or specificity. A number of computational methods were developed to detect these functional residues, generally known as ‘specificity-determining resides’ (SDRs). […] Based on the analysis, 7 amino acid residues in VH and 3 amino acid residues in VL were selected as the SDRs. The residues are labeled X₁ to X₁₀ for the ease of reference. The SDRs on VH are: Heavy chain D31 (HD31) (X₁), HK32 (X₂), HK54(X₃), HR100 (X₄), HY102 (X₅), HY103 (X₆) and HQ105 (X₇). The SDRs on VL are Light chain V32 (LV32) (X₈), LP94 (X₉) and LV95 (X₁₀). The SDRs were subsequently mutated by site-directed mutagenesis to other amino acids to generate mutant VH or VL clones. HEK293 cells were co-transfected with a vector encoding a mutant VH paired with a vector encoding a wild type VL or a vector encoding a wild type VH paired with a vector encoding a mutant VL. The antibody clones were harvested from the culture medium. The binding affinity of each antibody clone to human GM-CSF was tested by ELISA. The ELISA was done according to the following procedures. ELISA plate was coated with 50 μl of rhGM-CSF at 1 μg/mL. The plate was washed with 200 μl PBST for three times, followed by blocking with 1% BSA for 1 hour at room temperature. The antibody clones to be tested were diluted at 1:12000. 100 μl of the diluted antibodies were added to the cell at 100 μl/well. The plate was incubated at room temperature for 1 hour. The plate was then washed and incubated with 1:5000 diluted goat-anti-human secondary antibody conjugated with HRP at room temperature for one hour. The ELISA assay was developed with 100 μl developing buffer containing H₂O₂-Amplx Red per well in the dark for 5 min and the fluorescence intensity was read at Ex.530/Em.590 nm, with cutoff at 570 nm. The Unit Binding Activity (UBA) of each sample was calculated as the fluorescence signal/antibody clone dilution factor.

T1 sequence (P04141 18-144 limits assumed): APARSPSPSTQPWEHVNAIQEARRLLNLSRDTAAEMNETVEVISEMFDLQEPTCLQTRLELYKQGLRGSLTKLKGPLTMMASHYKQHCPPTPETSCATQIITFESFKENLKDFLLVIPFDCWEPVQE

| Binder | binding affinity % of 1D2 [%] |
| --- | --- |
| 1D2 SDR mutant HK54C (antibody, IgG1, V domains shown, also called X3 C) VH: QVQLVQSGAEVKKPGASVKVSCEASGYTFTDKYLHWVRQAPGQGLEWMAWINPCSGGTFYAQNFKGRVTVTRDTSINTAYLELTSLRLDDTSTYYCARGRDYYDQGAADLWGQGTMVTVSS VL: DIQLTQSPSSLSASVGDRVTITCRASQGINSVLAWYQQKPGKAPKLLLYAASKLESGVPSRFSGSGSGTDYTLTISSLQPEDFGTYYCQQYYSPVRTFGQGTKVEIKR | 76 |
| 1D2 SDR mutant HK32P (antibody, IgG1, V domains shown, also called X2 P) VH: QVQLVQSGAEVKKPGASVKVSCEASGYTFTDPYLHWVRQAPGQGLEWMAWINPKSGGTFYAQNFKGRVTVTRDTSINTAYLELTSLRLDDTSTYYCARGRDYYDQGAADLWGQGTMVTVSS VL: DIQLTQSPSSLSASVGDRVTITCRASQGINSVLAWYQQKPGKAPKLLLYAASKLESGVPSRFSGSGSGTDYTLTISSLQPEDFGTYYCQQYYSPVRTFGQGTKVEIKR | 88 |
| 1D2 SDR mutant HK54E (antibody, IgG1, V domains shown, also called X3 E) VH: QVQLVQSGAEVKKPGASVKVSCEASGYTFTDKYLHWVRQAPGQGLEWMAWINPESGGTFYAQNFKGRVTVTRDTSINTAYLELTSLRLDDTSTYYCARGRDYYDQGAADLWGQGTMVTVSS VL: DIQLTQSPSSLSASVGDRVTITCRASQGINSVLAWYQQKPGKAPKLLLYAASKLESGVPSRFSGSGSGTDYTLTISSLQPEDFGTYYCQQYYSPVRTFGQGTKVEIKR | 113 |
| 1D2 SDR mutant HK54F (antibody, IgG1, V domains shown, also called X3 F) VH: QVQLVQSGAEVKKPGASVKVSCEASGYTFTDKYLHWVRQAPGQGLEWMAWINPFSGGTFYAQNFKGRVTVTRDTSINTAYLELTSLRLDDTSTYYCARGRDYYDQGAADLWGQGTMVTVSS VL: DIQLTQSPSSLSASVGDRVTITCRASQGINSVLAWYQQKPGKAPKLLLYAASKLESGVPSRFSGSGSGTDYTLTISSLQPEDFGTYYCQQYYSPVRTFGQGTKVEIKR | 67 |
| 1D2 SDR mutant HK32R (antibody, V domains shown, not the clone labelled 32R, which is light chain V32R; also called X2 R) VH: QVQLVQSGAEVKKPGASVKVSCEASGYTFTDRYLHWVRQAPGQGLEWMAWINPKSGGTFYAQNFKGRVTVTRDTSINTAYLELTSLRLDDTSTYYCARGRDYYDQGAADLWGQGTMVTVSS VL: DIQLTQSPSSLSASVGDRVTITCRASQGINSVLAWYQQKPGKAPKLLLYAASKLESGVPSRFSGSGSGTDYTLTISSLQPEDFGTYYCQQYYSPVRTFGQGTKVEIKR | 90 |
| 1D2 SDR mutant HK54N (antibody, IgG1, V domains shown, also called X3 N) VH: QVQLVQSGAEVKKPGASVKVSCEASGYTFTDKYLHWVRQAPGQGLEWMAWINPNSGGTFYAQNFKGRVTVTRDTSINTAYLELTSLRLDDTSTYYCARGRDYYDQGAADLWGQGTMVTVSS VL: DIQLTQSPSSLSASVGDRVTITCRASQGINSVLAWYQQKPGKAPKLLLYAASKLESGVPSRFSGSGSGTDYTLTISSLQPEDFGTYYCQQYYSPVRTFGQGTKVEIKR | 73 |
| 1D2 SDR mutant HK54H (antibody, IgG1, V domains shown, also called X3 H) VH: QVQLVQSGAEVKKPGASVKVSCEASGYTFTDKYLHWVRQAPGQGLEWMAWINPHSGGTFYAQNFKGRVTVTRDTSINTAYLELTSLRLDDTSTYYCARGRDYYDQGAADLWGQGTMVTVSS VL: DIQLTQSPSSLSASVGDRVTITCRASQGINSVLAWYQQKPGKAPKLLLYAASKLESGVPSRFSGSGSGTDYTLTISSLQPEDFGTYYCQQYYSPVRTFGQGTKVEIKR | 74 |
| 1D2 SDR mutant HK54P (antibody, IgG1, V domains shown, also called X3 P) VH: QVQLVQSGAEVKKPGASVKVSCEASGYTFTDKYLHWVRQAPGQGLEWMAWINPPSGGTFYAQNFKGRVTVTRDTSINTAYLELTSLRLDDTSTYYCARGRDYYDQGAADLWGQGTMVTVSS VL: DIQLTQSPSSLSASVGDRVTITCRASQGINSVLAWYQQKPGKAPKLLLYAASKLESGVPSRFSGSGSGTDYTLTISSLQPEDFGTYYCQQYYSPVRTFGQGTKVEIKR | 85 |
| 1D2 SDR mutant HK32V (antibody, IgG1, V domains shown, also called X2 V) VH: QVQLVQSGAEVKKPGASVKVSCEASGYTFTDVYLHWVRQAPGQGLEWMAWINPKSGGTFYAQNFKGRVTVTRDTSINTAYLELTSLRLDDTSTYYCARGRDYYDQGAADLWGQGTMVTVSS VL: DIQLTQSPSSLSASVGDRVTITCRASQGINSVLAWYQQKPGKAPKLLLYAASKLESGVPSRFSGSGSGTDYTLTISSLQPEDFGTYYCQQYYSPVRTFGQGTKVEIKR | 90 |
| 1D2 SDR mutant HK32S (antibody, IgG1, V domains shown, also called X2 S) VH: QVQLVQSGAEVKKPGASVKVSCEASGYTFTDSYLHWVRQAPGQGLEWMAWINPKSGGTFYAQNFKGRVTVTRDTSINTAYLELTSLRLDDTSTYYCARGRDYYDQGAADLWGQGTMVTVSS VL: DIQLTQSPSSLSASVGDRVTITCRASQGINSVLAWYQQKPGKAPKLLLYAASKLESGVPSRFSGSGSGTDYTLTISSLQPEDFGTYYCQQYYSPVRTFGQGTKVEIKR | 78 |

Other lines, results leading:

| binding affinity % of 1D2 [%] | Binder |
| --- | --- |
| 76 | 1D2 SDR mutant HK32H (antibody, IgG1, V domains shown, also called X2 H) VH: QVQLVQSGAEVKKPGASVKVSCEASGYTFTDHYLHWVRQAPGQGLEWMAWINPKSGGTFYAQNFKGRVTVTRDTSINTAYLELTSLRLDDTSTYYCARGRDYYDQGAADLWGQGTMVTVSS VL: DIQLTQSPSSLSASVGDRVTITCRASQGINSVLAWYQQKPGKAPKLLLYAASKLESGVPSRFSGSGSGTDYTLTISSLQPEDFGTYYCQQYYSPVRTFGQGTKVEIKR |
| 91 | 1D2 SDR mutant HK32Q (antibody, IgG1, V domains shown, also called X2 Q) VH: QVQLVQSGAEVKKPGASVKVSCEASGYTFTDQYLHWVRQAPGQGLEWMAWINPKSGGTFYAQNFKGRVTVTRDTSINTAYLELTSLRLDDTSTYYCARGRDYYDQGAADLWGQGTMVTVSS VL: DIQLTQSPSSLSASVGDRVTITCRASQGINSVLAWYQQKPGKAPKLLLYAASKLESGVPSRFSGSGSGTDYTLTISSLQPEDFGTYYCQQYYSPVRTFGQGTKVEIKR |
| 74 | 1D2 SDR mutant HK32T (antibody, IgG1, V domains shown, also called X2 T) VH: QVQLVQSGAEVKKPGASVKVSCEASGYTFTDTYLHWVRQAPGQGLEWMAWINPKSGGTFYAQNFKGRVTVTRDTSINTAYLELTSLRLDDTSTYYCARGRDYYDQGAADLWGQGTMVTVSS VL: DIQLTQSPSSLSASVGDRVTITCRASQGINSVLAWYQQKPGKAPKLLLYAASKLESGVPSRFSGSGSGTDYTLTISSLQPEDFGTYYCQQYYSPVRTFGQGTKVEIKR |
| 100 | 1D2 SDR mutant HK54I (antibody, IgG1, V domains shown, also called X3 I) VH: QVQLVQSGAEVKKPGASVKVSCEASGYTFTDKYLHWVRQAPGQGLEWMAWINPISGGTFYAQNFKGRVTVTRDTSINTAYLELTSLRLDDTSTYYCARGRDYYDQGAADLWGQGTMVTVSS VL: DIQLTQSPSSLSASVGDRVTITCRASQGINSVLAWYQQKPGKAPKLLLYAASKLESGVPSRFSGSGSGTDYTLTISSLQPEDFGTYYCQQYYSPVRTFGQGTKVEIKR |
| 117 | 1D2 SDR mutant HK54A (antibody, IgG1, V domains shown, also called X3 A) VH: QVQLVQSGAEVKKPGASVKVSCEASGYTFTDKYLHWVRQAPGQGLEWMAWINPASGGTFYAQNFKGRVTVTRDTSINTAYLELTSLRLDDTSTYYCARGRDYYDQGAADLWGQGTMVTVSS VL: DIQLTQSPSSLSASVGDRVTITCRASQGINSVLAWYQQKPGKAPKLLLYAASKLESGVPSRFSGSGSGTDYTLTISSLQPEDFGTYYCQQYYSPVRTFGQGTKVEIKR |
| 60 | 1D2 SDR mutant HK32L (antibody, IgG1, V domains shown, also called X2 L) VH: QVQLVQSGAEVKKPGASVKVSCEASGYTFTDLYLHWVRQAPGQGLEWMAWINPKSGGTFYAQNFKGRVTVTRDTSINTAYLELTSLRLDDTSTYYCARGRDYYDQGAADLWGQGTMVTVSS VL: DIQLTQSPSSLSASVGDRVTITCRASQGINSVLAWYQQKPGKAPKLLLYAASKLESGVPSRFSGSGSGTDYTLTISSLQPEDFGTYYCQQYYSPVRTFGQGTKVEIKR |
| 106 | 1D2 SDR mutant HK54M (antibody, IgG1, V domains shown, also called X3 M) VH: QVQLVQSGAEVKKPGASVKVSCEASGYTFTDKYLHWVRQAPGQGLEWMAWINPMSGGTFYAQNFKGRVTVTRDTSINTAYLELTSLRLDDTSTYYCARGRDYYDQGAADLWGQGTMVTVSS VL: DIQLTQSPSSLSASVGDRVTITCRASQGINSVLAWYQQKPGKAPKLLLYAASKLESGVPSRFSGSGSGTDYTLTISSLQPEDFGTYYCQQYYSPVRTFGQGTKVEIKR |
| 97 | 1D2 SDR mutant HK32N (antibody, IgG1, V domains shown, also called X2 N) VH: QVQLVQSGAEVKKPGASVKVSCEASGYTFTDNYLHWVRQAPGQGLEWMAWINPKSGGTFYAQNFKGRVTVTRDTSINTAYLELTSLRLDDTSTYYCARGRDYYDQGAADLWGQGTMVTVSS VL: DIQLTQSPSSLSASVGDRVTITCRASQGINSVLAWYQQKPGKAPKLLLYAASKLESGVPSRFSGSGSGTDYTLTISSLQPEDFGTYYCQQYYSPVRTFGQGTKVEIKR |
